Data published in patent US6998260.

Target: human fibrinogen (UniProt P02671)
Sequence (P02671 20-629, chain 1 of 3): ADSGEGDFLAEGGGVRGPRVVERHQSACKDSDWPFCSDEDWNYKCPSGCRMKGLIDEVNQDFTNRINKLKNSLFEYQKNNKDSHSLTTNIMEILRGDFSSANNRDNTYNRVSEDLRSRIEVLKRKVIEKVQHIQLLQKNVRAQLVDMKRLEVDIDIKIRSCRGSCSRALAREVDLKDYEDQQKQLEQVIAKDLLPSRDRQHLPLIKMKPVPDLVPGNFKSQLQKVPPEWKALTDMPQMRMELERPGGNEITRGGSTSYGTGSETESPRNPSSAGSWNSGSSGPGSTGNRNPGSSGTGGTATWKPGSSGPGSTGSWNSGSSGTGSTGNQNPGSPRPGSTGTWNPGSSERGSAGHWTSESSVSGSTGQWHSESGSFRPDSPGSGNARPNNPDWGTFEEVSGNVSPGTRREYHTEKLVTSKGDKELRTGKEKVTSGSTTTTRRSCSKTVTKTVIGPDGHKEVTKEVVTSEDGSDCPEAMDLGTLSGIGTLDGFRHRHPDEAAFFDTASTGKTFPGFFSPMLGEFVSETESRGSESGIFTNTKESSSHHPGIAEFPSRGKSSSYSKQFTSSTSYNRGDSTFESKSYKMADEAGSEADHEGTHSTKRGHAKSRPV
Sequence (chain, as listed by the source, chain 2 of 3): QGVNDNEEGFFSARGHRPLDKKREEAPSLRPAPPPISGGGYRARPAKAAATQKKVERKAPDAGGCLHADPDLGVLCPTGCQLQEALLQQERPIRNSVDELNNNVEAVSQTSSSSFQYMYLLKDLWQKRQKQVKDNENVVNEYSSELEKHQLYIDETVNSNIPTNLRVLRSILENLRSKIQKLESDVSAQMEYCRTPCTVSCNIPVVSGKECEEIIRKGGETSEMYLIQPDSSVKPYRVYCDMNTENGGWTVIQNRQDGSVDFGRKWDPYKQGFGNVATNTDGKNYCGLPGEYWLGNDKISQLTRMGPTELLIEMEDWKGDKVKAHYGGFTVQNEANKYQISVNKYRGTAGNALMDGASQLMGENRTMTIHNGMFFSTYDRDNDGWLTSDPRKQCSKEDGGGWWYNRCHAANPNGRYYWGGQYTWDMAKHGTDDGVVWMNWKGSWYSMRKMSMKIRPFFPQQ
Sequence (chain, as listed by the source, chain 3 of 3): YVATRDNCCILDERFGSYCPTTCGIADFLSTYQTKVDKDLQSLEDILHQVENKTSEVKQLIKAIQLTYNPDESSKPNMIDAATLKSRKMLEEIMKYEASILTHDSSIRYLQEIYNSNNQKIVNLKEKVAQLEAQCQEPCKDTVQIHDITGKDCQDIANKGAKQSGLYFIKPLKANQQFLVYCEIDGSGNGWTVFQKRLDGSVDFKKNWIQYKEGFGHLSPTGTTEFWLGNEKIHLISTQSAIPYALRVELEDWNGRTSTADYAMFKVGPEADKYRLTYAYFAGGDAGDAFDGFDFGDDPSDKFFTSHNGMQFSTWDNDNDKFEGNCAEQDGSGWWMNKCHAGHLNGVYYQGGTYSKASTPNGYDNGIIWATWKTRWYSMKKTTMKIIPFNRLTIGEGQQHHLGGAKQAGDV

recombinant human β-I tryptase (from pPIC9-HumTry, expressed in Pichia pastoris), sequence (chain, as listed by the source): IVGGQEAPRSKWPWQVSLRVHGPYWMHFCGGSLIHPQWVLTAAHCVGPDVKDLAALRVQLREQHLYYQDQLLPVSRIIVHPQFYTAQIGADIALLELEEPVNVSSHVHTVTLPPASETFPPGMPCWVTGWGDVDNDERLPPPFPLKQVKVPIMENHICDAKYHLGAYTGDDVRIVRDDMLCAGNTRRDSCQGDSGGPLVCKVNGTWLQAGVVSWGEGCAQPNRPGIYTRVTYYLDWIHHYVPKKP
recombinant human β-II tryptase (from pPIC9-HumTryN102K, expressed in Pichia pastoris), sequence (chain, as listed by the source): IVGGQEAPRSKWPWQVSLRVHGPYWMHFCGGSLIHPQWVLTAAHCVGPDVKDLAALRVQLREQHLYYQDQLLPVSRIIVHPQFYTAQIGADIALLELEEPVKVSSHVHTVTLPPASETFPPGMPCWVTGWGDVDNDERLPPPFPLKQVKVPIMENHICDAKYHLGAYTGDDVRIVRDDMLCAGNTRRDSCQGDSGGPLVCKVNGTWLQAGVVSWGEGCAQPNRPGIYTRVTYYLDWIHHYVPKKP

Substance	fibrinogen cleavage (SDS-PAGE of fibrinogen subunits after 60 min incubation)
recombinant human β-I tryptase (from pPIC9-HumTry, expressed in Pichia pastoris)	The a and β subunits were efficiently hydrolyzed by the recombinant β-I and β-II tryptase enzymes even during cold incubation.
recombinant human β-II tryptase (from pPIC9-HumTryN102K, expressed in Pichia pastoris)	The a and β subunits were efficiently hydrolyzed by the recombinant β-I and β-II tryptase enzymes even during cold incubation.
β-tryptase isolated from a cadaver (native β)	Native β-tryptase was less efficient at fibrinogeneolysis
